# From patent US20160215297
# How the values were obtained:
# Experiment in all cases: cell_activity
# [1] = system: Il2rg TALEN right (synthetic construct); conditions: pair with TALEN left; mRNA electroporated into rat zygotes, 3/17 offspring; Surveyor assay positive in rat fibroblasts
# [2] = system: Il2rg ZFN right (synthetic construct); conditions: pair with ZFN left; mRNA electroporated into rat zygotes, 3/4 offspring; Surveyor assay positive in rat fibroblasts; 37% and 73% in Tests 5-1 and 5-2
# [3] = system: Il2rg TALEN left (synthetic construct); conditions: pair with TALEN right; mRNA electroporated into rat zygotes, 3/17 offspring; Surveyor assay positive in rat fibroblasts
# [4] = system: Il2rg ZFN left (synthetic construct); conditions: pair with ZFN right; mRNA electroporated into rat zygotes, 3/4 offspring; Surveyor assay positive in rat fibroblasts; 37% and 73% in Tests 5-1 and 5-2
sequence,measurement,setting,value
TCCAAGTGCAATTCATATACT (double strand) [Il2rg TALEN right binding site],activity (% mutant offspring),[1],18
GGTATGAGAAGGGGG (double strand) [Il2rg ZFN right binding site],activity (% mutant offspring),[2],75
TCCCAGAGGTTCAATGCT (double strand) [Il2rg TALEN left binding site],activity (% mutant offspring),[3],18
GCATAGTGAGGTTGG (double strand) [Il2rg ZFN left binding site],activity (% mutant offspring),[4],75
